# In patent US20160207996A1 (ARGEN X N V, published 2016):
# Residue numbers refer to the chain shown, from its start.
# T1: hNav1.7-loopB1-C1-D1-llama Fc (human)
# T1 construct: whole entry: loops B1, C1, D1 joined by linkers, llama Fc; also called hNav1.7-loopB1-C1-D1-llfc
# T1 chain: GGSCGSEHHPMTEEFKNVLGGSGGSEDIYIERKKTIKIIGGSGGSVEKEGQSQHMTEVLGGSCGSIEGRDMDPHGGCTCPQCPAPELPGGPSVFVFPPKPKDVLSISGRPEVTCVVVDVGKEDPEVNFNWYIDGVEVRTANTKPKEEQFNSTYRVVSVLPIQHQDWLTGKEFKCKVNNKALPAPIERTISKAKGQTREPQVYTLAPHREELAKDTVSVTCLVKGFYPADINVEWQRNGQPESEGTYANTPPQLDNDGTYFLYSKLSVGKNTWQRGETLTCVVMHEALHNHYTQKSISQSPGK
# T2: RatB1-C1-D1-llFc (rat)
# T2 construct: also called rat Nav1.7 loopB1-C1-D1 llamaFc chimera
# T2 chain: T1 chain with R32K, S52T, Q53E, H54Y, T56D, E57Y
# T3: hNav1.5-B1-C1-D1-llFc (human)
# T3 construct: also called Nav1.5 extracellular loop B1-C1-D1 llamaFc chimera
# T3 chain: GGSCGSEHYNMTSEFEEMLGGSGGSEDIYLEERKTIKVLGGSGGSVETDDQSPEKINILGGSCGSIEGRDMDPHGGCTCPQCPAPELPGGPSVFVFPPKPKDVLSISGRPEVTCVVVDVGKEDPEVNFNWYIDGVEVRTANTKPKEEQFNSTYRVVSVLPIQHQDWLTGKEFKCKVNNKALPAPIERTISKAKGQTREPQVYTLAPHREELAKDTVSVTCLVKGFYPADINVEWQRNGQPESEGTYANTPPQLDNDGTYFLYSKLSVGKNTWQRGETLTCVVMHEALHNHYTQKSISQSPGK
# T4: hNav1.7-loopA3-llama Fc fusion (human)
# T4 construct: also called hNav1.7-loopA3-llFc; loopA3-llamaFc chimera
# T4 chain: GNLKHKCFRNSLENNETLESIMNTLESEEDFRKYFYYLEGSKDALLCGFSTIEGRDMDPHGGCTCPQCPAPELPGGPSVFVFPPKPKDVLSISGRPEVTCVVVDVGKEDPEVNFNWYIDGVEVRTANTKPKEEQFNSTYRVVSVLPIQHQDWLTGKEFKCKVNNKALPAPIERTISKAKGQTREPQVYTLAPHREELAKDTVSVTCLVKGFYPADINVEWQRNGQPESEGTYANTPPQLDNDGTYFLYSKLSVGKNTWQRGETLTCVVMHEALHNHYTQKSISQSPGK
# B1: 9A11 (antibody, human IgG1, V domains shown)
# VH: EVQLVQPGAEVRRPGAAVKVSCKASGFALISSYIDWVRQAPGQGLEWMGRIDPEDGGTSYAQKFQGRVTVTVDTATSTAYVELSSLRSDDTGVYFCMVGDSGYWGQGTQVTVSS
# VL: ATMLTQSPGSLSVVPGESASISCKASQSLVHTDGKTYLSWLLQKPGQSPQRLIYQVSTRGSGVPDRVTGSGSGTDFTLKISGVKAEDAGVYYCAQTTYYPPTFGQGTKVELK
# B2: 9G6 (antibody, human IgG1, V domains shown)
# VH: EVQLVQPGAELTKPGASVKVSCNTSGYTFTGYYIDWVRQVPGEGLEWMGRIDPEDGDTKYAQKFQGRVTITADTSTTTAYMELSSLRSEDTAVYYCSLGVDYWGQGTQVTVSS
# VL: B1 VL with A25T, T32S, S39Y, T58N, G60D, V67F, Y99D, P101V
# B3: 9C3 (antibody, V domains shown)
# VH: EVQLVQPGAELRNPGTSVKVSCKTSGYYFTSSDIQWVRQAPAQGLEWMGRIDPEDGATKYAPKFQGRVTFTADTFTRTAYVELSNLRSDDTAVYYCMTAGGEYWGKGTLVTVSS
# VL: QPVLNQPSALSVSLGQTARITCQGGDFRNYYNNWYQQKPGQAPVLVIYEDSERPSGIPERFSGSSSGDTVILTVSRVQADDEADYYCQSSDSTDNAVFGGGTHLTVL
# notes: chimeric llama-human, human IgG1 constant domains
# B4: 9A1 (antibody, V domains shown)
# VH: EVQLVQPGAELRNPGASVKVSCKASGDTFTDYYIHWVRQAPGQGLEWMGRIDPEDGGTKYTQKFQGRVTFTADTSTSTVYLELDSLRSEDTAVYYCVGDMDYWGKGTLVTVSS
# VL: QTVVTQEPSLSVSPGGTVTLTCGLSSGSVTFGNYPSWYQQTPGQAPRTLIYTTNSRHSGVPSRFSGSISGNKATLTISGAQPEDEADFYCALSRVSGTYGTVFGGGTHLTVL
# notes: as for B3
# B5: mAb 6A1 (antibody, IgG1, V domains shown)
# VH: EVQLVESGGGLVQPGGSLRLSCAASGFTFSRNAMTWVRQAPGKGLEWVSAISSTGNSITEADSVKGRFTISRDNAKNMLYLQMNSLKPEDTAVYYCAKLGGDTWYMEYWGQGTQVTVSS
# VL: SYELTQSPSMSVALRQTAKITCGGNNIGSKSAQWYQQKPGQAPVLVIYADNRRPSGIPERFSGSNSGNTATLTISGAQAEDEADYYCQVWDSSANAVFGRGTHLTVLG
# B6: 9F10 (antibody, human IgG1, V domains shown)
# VH: B1 VH with A79V
# VL: ATMLTQSPGSLSVGPGESASISCKAGQSLTHPNGKTYLSWLLQKPGQSPRRLIYETSNRDPGVPDRFTGSGSGTDFTLRIVGVTVEDAGVYYCAQTTYFPIAFGQGTKVELK
# B7: 9C12 (antibody, V domains shown)
# VH: B1 VH with A79V
# VL: ATMLTQSPASLSVVPGESASISCKASQSLVHSDGKTYLYWLLQKPGQSPQRLIYQVSNRGSGVPDRFTGSGSGTDFTLKISGVKAEDAGVYYCAQHTYYPPSFGSGTRLEIK
# notes: as for B3
# B8: scFv A3 (scFv, part only; not given: GS linker, not shown: small tags and cut ends)
# scFv, part: QVQVQESGGGLVQPGGSLRLSCATSGFTFSNYYMSWVRQAPGKGPEWVSSIYSDLSTTYYADSVKGRFTISRDRAKNTLYLQMNSLKSEDTAVYYCARLSTVAGVDYWGKGTLVTVSSSYELTQSPSVSVALRQTAKITCGGNNIGSKSAQWYQQKPGQAPVLVIYADYRRPSGIPERFSGSNSGNTATLTISGAQAEDEADYYCQVWDSSANAAVFGGGTHLTVLG
# B9: scFv B1 (scFv, part only; not given: GS linker, not shown: small tags and cut ends)
# scFv, part: B8 scFv, part
# Molecular target: human Nav1.7 (full length) (human) (UniProt Q15858)
# Assay: cell-based or functional assay
Binder,"% inhibition of inward current following P02 voltage protocol, 10 µg/ml","% inhibition of inward current following P02 voltage protocol, 25 µg/ml","% inhibition of inward current following P02 voltage protocol, 100 µg/ml"
B1,16%,49.4%,62.3%
B2,11.8%,22.8%,37.5%
B3,18.3%,21.6%,36.9%
B4,6.4%,24.3%,37.5%

# Molecular target: T5, Nt-GCGR-hFc (human, UniProt P47871 26-136)
# T5 construct: domain: N-terminal domain; also called Nt-GCGR-Fc; recombinant N-terminal domain of GCGR; not shown: hFc
# Assay: ELISA with a titration of biotin-Nt-GCGR (x axis) against the mAbs, OD620
# T5 sequence (P47871 26-136): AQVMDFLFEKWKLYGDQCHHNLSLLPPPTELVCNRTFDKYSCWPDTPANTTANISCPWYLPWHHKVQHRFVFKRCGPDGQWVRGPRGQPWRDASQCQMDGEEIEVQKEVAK
row,Binder,binding result
1,B5,no binding (tested: about 20 ng/ml biotin-Nt-GCGR)

# Molecular target: T1, hNav1.7-loopB1-C1-D1-llama Fc
# Assay: ELISA, coated loop-B1-C1-D1-llama Fc 20 ng/well, mAb titrated
# Method: mAbs originating from the loopA3-llama Fc immunization were assayed for their affinity for hNav1.7-loopA3. Therefore, a Maxisorp plate was coated with 10 ng/well of loopA3-llamaFc chimera and incubated overnight at 4° C. The next day, the plate was blocked with PBS+1% casein for 2 hours at RT. Subsequently a concentration gradient of antibodies was applied (range 0.25 pM-66 nM) for another hour. Antibody binding to loopA3 was detected using a HRP-conjugated anti-human Fc antibody (Abcam, Ab7499) (incubation 1 hour at RT, dilution 1/5000 in PBS+0.1% casein), followed by TMB addition and OD620 nm measurement. EC50 values were determined using GraphPad Prism software. For comparison purposes a known hNav1.7-loopA3 binding monoclonal antibody, UCB_932 (US2011/0135662), was tested.
# In a next experiment, the binding affinity of the loop-specific mAbs was determined and compared to reference mAbs as described in US2011/0135662 (for loop A3: UCB_932, for loopB1-C1-D1: UCB_983, for loopC3: UCB_1066; US2011/0135662). Affinities were determined using an ELISA with a loop-coating of 10 ng/well (loopA3-llama Fc), 20 ng/well (loop-B1-C1-D1-llama Fc) or 50 ng/well (loopC3-llama Fc). The remainder of the experimental setup was identical to abovementioned binding ELISAs. Most of the mAbs show pM affinity for the respective hNav1.7 extracellular loop they are binding. […] The EC₅₀ for the reference mAbs could not be determined (nd) from the ELISA data available because the binding was too weak.
row,Binder,EC50
1,B1,0.091 nM
2,B6,0.081 nM
3,B7,0.22 nM
4,B3,0.17 nM
5,B4,0.33 nM

# Molecular target: T2, RatB1-C1-D1-llFc
# Assay: binding ELISA; the panel prints no target, by paragraph 562 the coated rat loop B1-C1-D1-llama Fc
row,Binder,binding result
1,B6,binds
2,B7,binds
3,B3,binds
4,B4,binds

# Molecular target: T3, hNav1.5-B1-C1-D1-llFc
# Assay: binding ELISA; the panel prints no target, by paragraph 288 and paragraph 555 the coated hNav1.5 loop B1-C1-D1-llama Fc
# From the text: The therapeutic potency of an anti-hNav1.7 antibody will highly depend on the lack of binding to other Nay family members. Of particular interest is hNav1.5, which is expressed on cardiac muscle cells. As such, cross-reactive binding of hNav1.7 antibodies to hNav1.5 could lead to heart failure. To assay the specificity of the mAbs derived from DNA immunization for hNav1.7, the corresponding loopA3 and loopB1-C1-D1 sequences of hNav1.5 were cloned as llamaFc chimera and cross-reactivity was determined using a binding ELISA (FIG. 8). All clones, except clone 9A6 and 9H4, show no cross-reactivity to hNav1.5. In addition, cross reactivity for hNav1.2 was tested for the loopA3-binding clones 8A7 and 8B6 using hNav1.2 and hNav1.7 derived monomeric, GST-tagged loopA3 peptides (Abnova, H00006326-Q01 (hNav1.2) and H00006335-Q01 (hNav1.7)). Again, no cross-reactive binding was observed.
row,Binder,binding result
1,B1,no binding (tested: about 130 nM)
2,B6,no binding (tested: about 130 nM)
3,B2,no binding (tested: about 130 nM)
4,B7,no binding (tested: about 130 nM)
5,B3,no binding (tested: about 130 nM)
6,B4,no binding (tested: about 130 nM)

# Molecular target: T1, hNav1.7-loopB1-C1-D1-llama Fc
# Assay: binding ELISA on coated loop-llama Fc chimera (20 ng/well), OD620
# Method: (§1) For all DNA-immunization derived mAbs the binding affinity for the various hNav1.7-loop-llama Fc chimeras was tested in a binding ELISA. Therefore, a Maxisorp plate (Nunc) was coated with 20 ng/well of hNav1.7-loopA3-llama Fc, hNav1.7-loopB1-C1-D1-llama Fc or hNav1.7-loopC3-llama Fc. Remainder of the ELISA setup is as described above. […] Only at very high concentration minor cross-reactivity is observed for some clones.
row,Binder,binding result
1,B2,binds

# Molecular target: T4, hNav1.7-loopA3-llama Fc fusion
# Assay: as above
# Method: as §1
row,Binder,binding result
1,B6,no binding (tested: about 66 nM)
2,B7,no binding (tested: about 66 nM)
3,B3,binds
4,B4,binds

# Molecular target: Nt-GCGR-hFc (human) (UniProt P47871)
# Assay: scFv binding ELISA, periplasmic extract on coated Nt-GCGR
# Sequence of Nt-GCGR-hFc (human) (P47871 26-136): as above
row,Binder,ScFv binding ELISA signal
1,B8,0.883
2,B9,0.749
